The text below walks through data of PMC3715468, “Structural and Functional Characterisation of TesA - A Novel Lysophospholipase A from Pseudomonas aeruginosa” (PLoS ONE, 2013).

As a reminder, the Km is the substrate concentration at which the rate is half of its maximum. By kcat/Km is commonly meant the second-order rate constant that governs catalysis at low substrate concentration. The term kcat denotes the maximal rate divided by the concentration of active sites.

Experiment in all cases: purified protein
What all share (assay type): biochemical, Pseudomonas aeruginosa

Data set [1] has as its system CCCCCC(=O)OC[C@@H](O)COP(=O)([O-])OCC[N+](C)(C)C. As to conditions: pH 7.2; 37.0 °C.
The test system of data set [2] is CCCCCCCCCCCC(=O)OC[C@@H](O)COP(=O)([O-])OCC[N+](C)(C)C. As to conditions: pH 7.2; 37.0 °C.
Data set [3] concerns CCCCCCCCCCCCCCCC(=O)OC[C@@H](O)COP(=O)([O-])OCC[N+](C)(C)C. To be noted: 20 mM Tris-HCl pH 7.2, 37 °C, 0.25% (v/v) Triton X-100, 1.5 mM NaN3, 30 min.

With TesA (Pseudomonas aeruginosa PAO1), in data set [1], the Km is 7.22 ± 0.92 mM and the catalytic efficiency (kcat/Km) came out at 110000 M⁻¹ s⁻¹. Also, in data set [2], the Km was 1.78 ± 0.17 mM and the kcat/Km was determined as 1.1e+06 M⁻¹ s⁻¹. Besides, in data set [3], the Michaelis constant (Km) is on record as 2.04 ± 0.18 mM, the kcat is 921 s⁻¹ and the catalytic efficiency (kcat/Km) was found to be 450000 M⁻¹ s⁻¹.
